According to publication PMC7855493 (Molecular cell, 2020):

Molecular target: T1, yeast mitochondrial RNA polymerase ΔN100 (y-mtRNAP ΔN100) (S. cerevisiae, UniProt P13433 101-1351)
T1 sequence (looked up): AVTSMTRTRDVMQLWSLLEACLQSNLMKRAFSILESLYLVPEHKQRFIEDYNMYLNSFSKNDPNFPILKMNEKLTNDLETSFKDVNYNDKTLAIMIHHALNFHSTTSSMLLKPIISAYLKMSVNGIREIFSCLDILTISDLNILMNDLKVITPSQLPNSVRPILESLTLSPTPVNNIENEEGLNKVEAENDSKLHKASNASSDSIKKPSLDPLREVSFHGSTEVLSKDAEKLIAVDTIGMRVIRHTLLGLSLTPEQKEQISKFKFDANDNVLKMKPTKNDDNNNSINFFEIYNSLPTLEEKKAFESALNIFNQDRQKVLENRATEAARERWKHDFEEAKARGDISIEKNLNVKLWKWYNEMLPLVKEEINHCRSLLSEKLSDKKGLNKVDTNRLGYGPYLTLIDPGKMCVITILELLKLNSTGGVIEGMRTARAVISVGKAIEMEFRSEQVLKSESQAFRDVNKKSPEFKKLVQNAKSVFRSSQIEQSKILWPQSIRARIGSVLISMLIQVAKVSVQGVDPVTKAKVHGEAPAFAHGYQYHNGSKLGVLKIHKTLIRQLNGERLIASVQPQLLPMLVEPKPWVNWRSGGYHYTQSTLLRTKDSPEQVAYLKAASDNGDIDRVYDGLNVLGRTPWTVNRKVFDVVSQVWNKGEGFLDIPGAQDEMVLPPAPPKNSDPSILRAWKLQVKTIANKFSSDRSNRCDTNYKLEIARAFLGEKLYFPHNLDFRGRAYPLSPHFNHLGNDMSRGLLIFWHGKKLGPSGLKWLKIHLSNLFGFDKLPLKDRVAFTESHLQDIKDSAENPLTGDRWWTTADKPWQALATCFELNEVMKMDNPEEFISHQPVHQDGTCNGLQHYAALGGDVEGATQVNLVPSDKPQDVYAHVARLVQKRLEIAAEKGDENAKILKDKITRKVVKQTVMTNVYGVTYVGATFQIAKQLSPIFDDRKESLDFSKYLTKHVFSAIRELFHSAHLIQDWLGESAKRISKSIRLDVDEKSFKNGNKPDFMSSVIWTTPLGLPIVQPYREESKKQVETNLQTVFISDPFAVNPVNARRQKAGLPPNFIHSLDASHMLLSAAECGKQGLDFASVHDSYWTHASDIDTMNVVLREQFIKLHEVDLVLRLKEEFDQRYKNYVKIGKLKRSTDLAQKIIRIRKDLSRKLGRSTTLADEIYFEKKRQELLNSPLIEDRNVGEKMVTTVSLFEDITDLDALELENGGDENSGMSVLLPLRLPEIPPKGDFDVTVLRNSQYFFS
Test: cryo-EM structure

- binding result: binds
B1: MTF1 (yeast mitochondrial transcription factor), wild type (natural protein, S. cerevisiae)
chain: SVPIPGIKDISKLKFFYGFKYLWNPTVYNKIFDKLDLTKTYKHPEELKVLDLYPGVGIQSAIFYNKYCPRQYSLLEKRSSLYKFLNAKFEGSPLQILKRDPYDWSTYSNLIDEERIFVPEVQSSDHINDKFLTVANVTGEGSEGLIMQWLSCIGNKNWLYRFGKVKMLLWMPSTTARKLLARPGMHSRSKCSVVREAFTDTKLIAISDANELKGFDSQCIEEWDPILFSAAEIWPTKGKPIALVEMDPIDFDFDVDNWDYVTRHLMILKRTPLNTVMDSLGHGGQQYFNSRITDKDLLKKCPIDLTNDEFIYLTKLFMEWPFKPDILMDFVDMYQTEHSG
